# Measurements taken from US12168773B2, “Engineered phosphoenolpyruvate carboxylase enzymes” (The Regents of the University of California, priority 2019, dated 2024).
# Changes are numbered by the printed parent chain. Names may count otherwise.
# B1: ZmPPC1 G678S: engineered Zea mays PPC1 with G678S substitution (G682S in SEQ ID NO:15) (protein)
# chain: MASTKAPGPGEKHHSIDAQLRQLVPGKVSEDDKLIEYDALLVDRFLNILQDLHGPSLREFVQECYEVSADYEGKGDTTKLGELGAKLTGLAPADAILVASSILHMLNLANLAEEVQIAHRRRNSKLKKGGFADEGSATTESDIEETLKRLVSEVGKSPEEVFEALKNQTVDLVFTAHPTQSARRSLLQKNARIRNCLTQLNAKDITDDDKQELDEALQREIQAAFRTDEIRRAQPTPQDEMRYGMSYIHETVWKGVPKFLRRVDTALKNIGINERLPYNVSLIRFSSWMGGDRDGNPRVTPEVTRDVCLLARMMAANLYIDQIEELMFELSMWRCNDELRVRAEELHSSSGSKVTKYYIEFWKQIPPNEPYRVILGHVRDKLYNTRERARHLLASGVSEISAESSFTSIEEFLEPLELCYKSLCDCGDKAIADGSLLDLLRQVFTFGLSLVKLDIRQESERHTDVIDAITTHLGIGSYREWPEDKRQEWLLSELRGKRPLLPPDLPQTDEIADVIGAFHVLAELPPDSFGPYIISMATAPSDVLAVELLQRECGVRQPLPVVPLFERLADLQSAPASVERLFSVDWYMDRIKGKQQVMVGYSDSGKDAGRLSAAWQLYRAQEEMAQVAKRYGVKLTLFHGRGGTVGRGGGPTHLAILSQPPDTINGSIRVTVQGEVIEFCFSEEHLCFQTLQRFTAATLEHGMHPPVSPKPEWRKLMDEMAVVATEEYRSVVVKEARFVEYFRSATPETEYGRMNIGSRPAKRRPGGGITTLRAIPWIFSWTQTRFHLPVWLGVGAAFKFAIDKDVRNFQVLKEMYNEWPFFRVTLDLLEMVFAKGDPGIAGLYDELLVAEELKPFGKQLRDKYVETQQLLLQIAGHKDILEGDPFLKQGLVLRNPYITTLNVFQAYTLKRIRDPNFKVTPQPPLSKEFADENKPAGLVKLNPASEYPPGLEDTLILTMKGIAAGMQNTG
# B2: ZmPPC1 T7781: engineered Zea mays PPC1 with T778I substitution (T782I in SEQ ID NO:15) (protein)
# chain: B1 chain with S682G, T782I
# B3: AtPPC1 G678S: engineered Arabidopsis thaliana PPC1 with G678S substitution (alr-128), SEQ ID NO:11 (protein)
# chain: MANRKLEKMASIDVHLRQLVPGKVSEDDKLVEYDALLLDRFLDILQDLHGEDLRETVQELYEHSAEYEGKHEPKKLEELGSVLTSLDPGDSIVIAKAFSHMLNLANLAEEVQIAYRRRIKKLKKGDFVDESSATTESDLEETFKKLVGDLNKSPEEIFDALKNQTVDLVLTAHPTQSVRRSLLQKHGRIRDCLAQLYAKDITPDDKQELDEALQREIQAAFRTDEIKRTPPTPQDEMRAGMSYFHETIWKGVPKFLRRVDTALKNIGIEERVPYNAPLIQFSSWMGGDRDGNPRVTPEVTRDVCLLARMMAATMYFNQIEDLMFEMSMWRCNDELRARADEVHANSRKDAAKHYIEFWKSIPTTEPYRVILGDVRDKLYHTRERAHQLLSNGHSDVPVEATFINLEQFLEPLELCYRSLCSCGDRPIADGSLLDFLRQVSTFGLSLVRLDIRQESDRHTDVLDAITTHLDIGSYREWSEERRQEWLLSELSGKRPLFGSDLPKTEEIADVLDTFHVIAELPADSFGAYIISMATAPSDVLAVELLQRECRVKQPLRVVPLFEKLADLEAAPAAVARLFSVDWYKNRINGKQEVMIGYSDSGKDAGRLSAAWQLYKAQEELVKVAKEYGVKLTMFHGRGGTVGRGGGPTHLAILSQPPDTINGSLRVTVQGEVIEQSFSEEHLCFRTLQRFTAATLEHGMRPPISPKPEWRALLDEMAVVATEEYRSVVFQEPRFVEYFRLATPELEYGRMNIGSRPSKRKPSGGIESLRAIPWIFAWTQTRFHLPVWLGFGSAIRHVIEKDVRNLHMLQDMYQHWPFFRVTIDLIEMVFAKGDPGIAALYDKLLVSEELWPFGEKLRANFEETKKLILQTAGHKDLLEGDPYLKQRLRLRDSYITTLNVCQAYTLKRIRDPSYHVTLRPHISKEIAESSKPAKELIELNPTSEYAPGLEDTLILTMKGIAAGLQNTG
# B4: ZmPPC1 wild type: wild type Zea mays PPC1, C4 PEPC, SEQ ID NO:15 (protein)
# chain: B1 chain with S682G
# B5: AtPPC1 R886G: engineered Arabidopsis thaliana PPC1 enzyme with R886G substitution (protein, UniProt Q9MAH0 1-967, looked up, variant R886G)
# Phosphoenolpyruvate …: B3 chain with S678G, R886G
# B6: AtPPC1 A651V: engineered Arabidopsis thaliana PPC1 with A651V substitution (alr-108), SEQ ID NO:10 (protein)
# chain: B3 chain with A651V, S678G
# B7: AtPPC1 T778I: engineered Arabidopsis thaliana PPC1 with T778I substitution (alr-139), SEQ ID NO:12 (protein)
# chain: B3 chain with S678G, T778I
# B8: AtPPC1 wild type: wild type Arabidopsis thaliana PPC1, C3 PEPC, SEQ ID NO:1 (protein)
# chain: B3 chain with S678G
# Key:
# [1] = tested on: Zea mays PPC1 (ZmPPC1, C4 PEPC); test: malate dehydrogenase coupled PEPC enzymatic assay, maize C4 PPC1 and engineered variants; format: biochemical; conditions: for Km: 0-7.5 mM phosphoenolpyruvate, read-out: Km PEP; for Km / Vmax: 25° C, HEPES pH7.5; for increases in catalytic efficiency relative to wt ZmPPC1: Kcat/Km; for activity of C4 PEPC: substitution introduced into maize C4 PEPC (ZmPPC1)
# Text: (§1) For both Arabidopsis C3 PPC1 (AtPPC1) and maize C4 PPC1 (ZmPPC1), the entire coding sequence for each was cloned into pET22b, which contains an amino-terminal 6×-HIS tag for protein purification, and expression was driven by the T7 promoter and lac operon. Relevant mutations were introduced by the Stratagene QuikChange mutagenesis kit using PCR amplification. Both wild type and mutant cDNA constructs were sequenced entirely following cloning into pet22b. Proteins were produced by growing transformed E. coli (BL21 CodonPlus) in autoinduction medium at 18° C. for 16 hours. Proteins were isolated by sonication of bacterial cells followed by passage over a nickel sepharose affinity column, elution with imidazole and separation on a GE SUPERDEX HILOAD 200 PG 16/60 all using an AKTA FPLC.
# (§2) Enzyme analysis was conducted in vitro using protein that was generated by expression in E. coli using the pET22b vector. For expression, pET22b constructs were transformed into E. coli BL21-DE3 codon plus RIL cells and grown at 37° C. in autoinduction media until reaching an OD=1 after which these were transferred to 18° C. for 18 hours. Samples were collected and lysed by sonication. Protein was purified by passage through a His-trap nickel affinity column on an Akta FPLC and then eluted with 400 mM imidazole. Partially purified protein was then separated on an FPLC equipped with a HiPrep S200 size exclusion column (16/60) after which collected sample was concentrated by centrifugation to a final concentration of 4 mg/ml in 50% glycerol. Samples were stored at −20° C.
# (§3) For enzymatic assays, a malate dehydrogenase coupled reaction was conducted with a range of substrate concentrations (0-7.5 mM phosphoenolpyruvate pyruvate) and a range of concentrations of allosteric inhibitor (0-50 mM malate). Assays were monitored using a Victor2 microplate reader at 25° C. Reactions consisted of […] PPC enzyme variants, 50 mM HEPES pH7.5, 10 mM MgCl2, 10 mM KHCO3 (carbonate substrate), 0.2 mM NADH, and 10 units/ml of malate dehydrogenase. Reaction time was 15 minutes and samples were measured on an ˜40 second interval. For measurement, which monitors loss of NADH, excitation wavelength was 340 nM and emission wavelength was 460 nM.
# [2] = tested on: transgenic Arabidopsis seedlings; test: root growth analysis of transgenic Arabidopsis in the presence of aluminum; format: in vivo, Arabidopsis thaliana; conditions: day 7, 20° C, soaked gel, aluminum toxicity equivalent to about 50-100 μM; versus plants expressing wt AtPPC1
# Experimental: Root growth was examined in transgenic Arabidopsis engineered to express wt AtPPC1, or a variant PEPC (G678S AtPPC1 or R886G AtPPC1) in a genotypic background devoid of expression of native AtPPC1. Seedlings from the transgenic Arabidopsis strains were grown at 20° C. in a soaked gel environment with aluminum toxicity equivalent to about 50-100 μM in the absence of agar. Root growth was assessed at day 7. […] This is consistent with the improved enzyme kinetics of the G678S AtPPC1 or R886G AtPPC1 enzymes described in Example 5.
# [3] = tested on: Arabidopsis thaliana PPC1 (AtPPC1, C3 PEPC); test: malate dehydrogenase coupled PEPC enzymatic assay, Arabidopsis C3 PPC1 and engineered variants; format: biochemical; conditions: for Km: 0-7.5 mM phosphoenolpyruvate, read-out: Km PEP; for Km / Vmax: 25° C, HEPES pH7.5
# Text: as §1, §2
# as §3, with “nM. From these assays, the enzyme kinetics of Tables 4-1 and 4-2 were determined for each enzyme variant.” for “nM.”
Molecule,Km [1],Vmax [1],Km [3],Vmax [3],other results
B1,2.66 ± 0.333 mM,17.74 ± 1.04 units/mg,–,–,effects of the allosteric inhibitor malate relative to wt ZmPPC1 [1]: greatly reduce; increases in catalytic efficiency relative to wt ZmPPC1 [1]: ~200%; activity of C4 PEPC [1]: increased activity
B2,1.19 ± 0.104 mM,14.05 ± 0.44 units/mg,–,–,effects of the allosteric inhibitor malate relative to wt ZmPPC1 [1]: greatly reduce; increases in catalytic efficiency relative to wt ZmPPC1 [1]: ~300%; activity of C4 PEPC [1]: increased activity
B3,–,–,0.433 ± 0.04 mM,17.784 ± 0.44 units/mg,root growth in the presence of aluminum [2]: large increase; increase in catalytic efficiency over wt AtPPC1 ([3]; Kcat/Km relative to wt AtPPC1): ~5 fold; reduction in Km ([3]; compared with wt AtPPC1): 85%
B4,4.62 ± 0.406 mM,17.56 ± 2.35 units/mg,–,–,effect of malate on enzyme ([1]; at 50 mM malate): completely inhibited
B5,–,–,1.11 ± 0.036 mM,12.586 ± 0.14 units/mg,root growth in the presence of aluminum [2]: large increase
B6,–,–,0.956 ± 0.04 mM,15.776 ± 0.25 units/mg,–
B7,–,–,1.09 ± 0.027 mM,14.738 ± 0.15 units/mg,–
B8,–,–,2.74 ± 0.166 mM,24.992 ± 0.69 units/mg,–
